Experimental data published in patent publication US20250270341A1 (Alector, published 2025).

T1: Full length mouse CD98hc on CHO cells (mouse, UniProt P10852 1-526)
T1 construct: CHO cells stably overexpressing it; also called CHO-mouse CD98hc; CHO-mCD98hc
T1 sequence: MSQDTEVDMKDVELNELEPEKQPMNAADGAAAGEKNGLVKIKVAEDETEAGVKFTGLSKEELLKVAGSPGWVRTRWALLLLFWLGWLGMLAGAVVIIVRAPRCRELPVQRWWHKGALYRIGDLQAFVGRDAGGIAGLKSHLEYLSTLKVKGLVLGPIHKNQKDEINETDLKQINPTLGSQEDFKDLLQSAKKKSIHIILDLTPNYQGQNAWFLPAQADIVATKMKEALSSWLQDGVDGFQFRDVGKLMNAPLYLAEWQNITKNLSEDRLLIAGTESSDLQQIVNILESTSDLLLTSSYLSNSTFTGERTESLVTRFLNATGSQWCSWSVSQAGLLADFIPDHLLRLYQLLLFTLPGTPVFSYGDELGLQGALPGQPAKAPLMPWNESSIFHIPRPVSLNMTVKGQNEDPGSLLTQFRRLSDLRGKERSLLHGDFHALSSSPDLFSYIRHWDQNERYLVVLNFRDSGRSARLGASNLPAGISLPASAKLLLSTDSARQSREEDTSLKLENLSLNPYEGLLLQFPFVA

T2: huCD98hc ECD Avi-His (human, UniProt P08195 105-529)
T2 construct: biotinylated on the Avi tag where captured on streptavidin; also called Human CD98-AVI-His; Human CD98hc-AVI-His
T2 sequence: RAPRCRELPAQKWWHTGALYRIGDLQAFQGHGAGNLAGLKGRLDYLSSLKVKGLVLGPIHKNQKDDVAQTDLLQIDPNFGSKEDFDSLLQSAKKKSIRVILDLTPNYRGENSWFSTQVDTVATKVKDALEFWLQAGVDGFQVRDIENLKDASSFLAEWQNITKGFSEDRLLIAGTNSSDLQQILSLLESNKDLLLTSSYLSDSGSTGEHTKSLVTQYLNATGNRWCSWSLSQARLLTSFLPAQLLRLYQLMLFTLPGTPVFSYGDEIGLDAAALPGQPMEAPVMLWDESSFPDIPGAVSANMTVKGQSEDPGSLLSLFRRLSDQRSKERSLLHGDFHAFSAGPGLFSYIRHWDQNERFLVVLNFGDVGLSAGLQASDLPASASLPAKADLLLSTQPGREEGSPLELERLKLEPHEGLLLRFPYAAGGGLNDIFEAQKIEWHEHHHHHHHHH

T3: Cyno CD98hc ECD Avi-His (cynomolgus macaque, UniProt P08195 105-529 (human entry))
T3 construct: biotinylated on the Avi tag where captured on streptavidin; also called Cyno CD98-AVI-His; Cyno CD98hc-AVI-His
T3 chain: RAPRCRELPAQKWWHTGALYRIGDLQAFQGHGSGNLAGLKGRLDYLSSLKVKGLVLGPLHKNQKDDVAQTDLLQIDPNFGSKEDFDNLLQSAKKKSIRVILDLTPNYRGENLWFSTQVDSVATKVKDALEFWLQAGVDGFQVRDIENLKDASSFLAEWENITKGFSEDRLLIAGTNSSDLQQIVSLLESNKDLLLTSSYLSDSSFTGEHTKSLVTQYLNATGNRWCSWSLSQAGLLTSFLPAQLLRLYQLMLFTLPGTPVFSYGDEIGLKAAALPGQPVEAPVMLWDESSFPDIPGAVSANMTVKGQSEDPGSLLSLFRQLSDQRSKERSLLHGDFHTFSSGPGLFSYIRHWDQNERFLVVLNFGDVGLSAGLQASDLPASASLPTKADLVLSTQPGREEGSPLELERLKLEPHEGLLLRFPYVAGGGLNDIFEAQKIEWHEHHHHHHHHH


Legend:
[1] = target: T1, Full length mouse CD98hc on CHO cells; assay: FACS, hybridoma supernatant
From the text: The IgG positive hybridoma supernatants (898 in total) were initially screened for their ability to differentially bind CHO cells overexpressing human or mouse CD98hc cells compared to CHO parental cells by FACS. Overexpressing cells were harvested, washed, and labeled with various concentrations and combinations of CellTrace cell proliferation dyes CFSE and Violet (ThermoFisher, Cat #C34554 and Cat #34557, respectively) to create uniquely barcoded cell populations. Barcoded cells (5×10⁴ of each cell population) were aliquoted into 96-well U-bottom plates and incubated with 50 μl of hybridoma cell culture supernatant or 1 μg/ml of commercially available purified mouse anti-human CD98hc monoclonal antibody (Sigma Aldrich, Cat #SAB 4700503) and rat anti-mouse CD98hc antibody (Bio-Rad Laboratories, Hercules, CA, Cat #MCA2684) on ice for 30 minutes. […] Following this secondary antibody incubation, the cells were again washed twice with ice-cold FACS buffer and resuspended in a final volume of 50 μl of FACS buffer containing 0.25 μl/well propidium iodide (BD Biosciences, Cat #556463). Binding intensity on cells was analyzed using the FACS Canto system (BD Biosciences), with sorting gates drawn to exclude dead (i.e., propidium iodide-positive) cells. For each barcoded cell population, the ratio of APC Mean Fluorescence Intensity (MFI) divided by secondary antibody MFI was calculated for each anti-CD98hc hybridoma supernatant tested and reported in Table 5.

[2] = target: T2, huCD98hc ECD Avi-His; assay: ELISA, hybridoma supernatant
Description: (§1) Briefly, 96-well polystyrene plates were coated with 5 μg/ml of streptavidin (Thermo Fisher, Cat #PI21125) in coating buffer (0.05M carbonate buffer, pH 9.6, Sigma, Cat #C3041) overnight at 4° C. Coated plates were then blocked with ELISA diluent (PBS+0.5% BSA+0.05% Tween20) for one hour. Blocking buffer was removed and human, cyno, or mouse Avi-His-tagged CD98hc and Avi-His-tagged human TfR polypeptides were added at 1 μg/ml in ELISA diluent and captured for 1 hour at room temperature. After washing three times with 300 μl of PBST (PBS+0.05% Tween20, Thermo 28352), the hybridoma cell culture supernatants or 1 μg/ml of commercially available purified mouse anti-human CD98hc monoclonal antibody (Sigma Aldrich, Cat #SAB 4700503) and rat anti-mouse CD98hc antibody (Bio-Rad Laboratories, Hercules, CA, Cat #MCA2684) were added (50 μl/well) to each well. After 30 minutes of incubation at room temperature, the plates were washed three times with 300 μl of PBST. […] After a final set of washes (3×300 μl in PBST), 50 μl/well of BioFx TMB substrate (Surmodics, Eden Praire, MN, Cat #TMBW-1000-01) was added to the wells. The reaction was then quenched after 5-10 mins with 50 μl/well of 2N sulfuric acid. The plates were read for absorbance at 450 nm on a SpectraMax M5 (Molecular Devices, Sunnyvale, CA) using SoftMax Pro software.

[3] = target: T3, Cyno CD98hc ECD Avi-His; assay: ELISA, hybridoma supernatant
Description: as §1

Binder | binding result [1] | OD450 [2] | OD450 [3]
CD98HC.04.022 (antibody, V domains shown, hybridoma IgG) VH: EVQLQQSGAELVKPGASVKLSCTASGFNIKDTFMHWMKQRPEQGLEWIGRIDPANANTRYDPKFQGKATITTDTSSNTAYLQLSSLTSEDTAVYYCARDVYYDVWGAGTTVTVSS VL: DILMTQSPSSMSVSLGDTVTITCHASQGISSNIGWLQQKPGRSFKGLIYHGSNLEDGVPSRFTGSGSGTDYSLTISGLESEDFADYYCVQYAQFPRTFGGGTKLEIQ | no binding | 1.36 | 1.89
CD98HC.04.045 (antibody, V domains shown, hybridoma IgG) VH: QIQLVQSGPELKKPGETVKISCKASGYSITNFGMNWVKQAPGKGLKWMGWVNTYTGEPTYADDFKGRFAFSLETSASTASLQINNLKNEDTATYFCTRSVITYTMDYWGQGTSVTVSS VL: DIQLTQSPSSLSASLGERVSLTCRASQEISGYLSWLQQKPDGTIKRLIYAASTLDSGVPKRFSGSRSGSDYSLTISSLESEDFADYYCLQYASYPRTFGGGTKVEIK | no binding | 1.51 | 1.34
CD98HC.04.046 (antibody, V domains shown, hybridoma IgG) VH: QIQLVQSGPVLKKPGETVKISCKASGYTFTNFGMNWVKQAPGKGLKWMGWIDTYTREPTYVDDFKGRFAFSLETSVTTAYLQINDLKNEDSATYFCARGESHWYFDVWGAGTTVTVSS VL: QIVLTQSPAIMSASLGERVTMTCIVSSSVSSSYLYWYQQKPGSSPKLWIYSTSILASGVPGRFSGSGSGTSYSLTISSMEAEDAATYYCHQYHRSPPTFGGGTKLEIK | no binding | 1.38 | 1.88
CD98HC.04.058 (antibody, V domains shown, hybridoma IgG) VH: QVQLQQSGAELVRPGVSVKISCKASGYTFTDHTMHWVKQSHARSLEWIGVISTYFGDASYNPKFKGKATMTVDKSSNTAYMELARLTSEDSAIYYCARVGGRLRLGYYFDYWGQGTTLTVSS VL: NIMMTQSPSSLAVSAGEKVTMNCKSSQTVLYSSNQKNYLAWYQQKPGQSPKLLIYWASTRESGVPDRFTGSGSGTDFTLTISSVQVEDLAVYYCHQYLSSYTFGGGTKLEIK | no binding | 1.34 | 1.73
CD98HC.04.062 (antibody, V domains shown, hybridoma IgG) VH: EVQLVESGGDLVKPGGSLKLSCTASRFAFSTYDMSWVRQTPEKRLEWVAYISSGGGSTYFPDTVKGRFTISRDNAKNTLYLQMSSLKSEDTAMYYCARQDGHYPWFPYWGQGTLVTVSA VL: DIVMSQSPSSLAVSVGEKVTMSCKSSQSLLYSGNQKTYLAWYQQKPGQSPKPLIYWASTRESGIPDRFTGSGSGTDFTLTISSVKAEDLAVYYCQQYYSYPPTFGAGTKLELK | no binding | 1.61 | 1.63
CD98HC.04.063 (antibody, V domains shown, hybridoma IgG) VH: EVKLEESGGGLVQPGGSMILSCVASGFTFSNSWMNWVRQSPEKGLEWVAEIRLRSNNYATHYAESVKGRFTISRDDSKSTVYLQMNNLRAEDTGIYYCSRGDPGAYWGQGTLVTVSA VL: DIQMTQSSSYLSVSLGNRVTITCKASDHIKNWLAWFQQKPGNAPRLLISGATILETGVPSRFSGSGSGKDYTLSITSLQTEDVATYYCQQYWSTPYTFGGGTKLEIK | no binding | 1.66 | 1.91
CD98HC.04.064 (antibody, V domains shown, hybridoma IgG) VH: QVQLQQPGAELVRPGASVKLSCKASGYTFTSYWMNWVRQRPGQGLEWIGLIDPSDSETHYNQMFKDRATLTVDKSSSTAYMQLSSLTSADPAVYYCARASYGKGYFDYWGQGTTLTVSS VL: not shown | no binding | 1.7 | 1.76
CD98HC.03.004 (antibody, V domains shown, hybridoma IgG) VH: DVQLQESGPGLVKPSQSLSLTCTVTGYSITNNYAWNWIRRFPGNKLEWMAYISYSGYTSYNPSLKSRISITRDTSKNQFFLQLNSVTTEDTATYYCTGYFYYYGGGSFDYWGQGTTLTVSS VL: QAVVTQESALTTSPGETVTLTCRSSTGAVTTSNFANWVQEKPDHLFTGLIRGSNNRAPGVPARFSGSLIGDKAALTITGARTEDEAIYFCALWYSDHWVFGGGTKLTVL | no binding | 1.49 | 1.4
CD98HC.03.010 (antibody, V domains shown, hybridoma IgG) VH: EVQLQQSGTELVKPGASVKLSCTASGLDIKDTYLHWVKQRPEQGLEWIGKIDPANGNTKYNPKFQGKATITADTSSNTAYLQLSSLTSEDTAVHYCTTPYYSGSSYGDYWGQGTTLTVSS VL: QIVLTQSPAIMSASPGEKVTLTCSASSSVSSSYLYWYQQKPGSSPKLWIYSTSNLASGVPARFSGSGSGTSYSLTISSMEAEDAASYFCHQWSRYPLTFGAGTKLELK | no binding | 1 | 1.77
